Measurements reported in publication PMC9482650, “Quantitative fragmentomics allow affinity mapping of interactomes” (Nature Communications, 2022).

T1: ARHGAP21, Q5T5U3
T1 sequence (Q5T5U3 45-169, limits assumed, looked up): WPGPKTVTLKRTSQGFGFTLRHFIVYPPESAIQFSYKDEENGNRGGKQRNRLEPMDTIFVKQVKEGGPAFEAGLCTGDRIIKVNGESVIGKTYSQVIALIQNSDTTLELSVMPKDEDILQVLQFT

T2: DFNB31_2, Q9P202
T2 sequence (Q9P202 274-371, limits assumed, looked up): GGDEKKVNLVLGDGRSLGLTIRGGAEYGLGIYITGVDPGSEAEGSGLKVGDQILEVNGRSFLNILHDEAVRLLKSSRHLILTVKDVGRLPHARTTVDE

T3: DLG3_2, Q92796
T3 sequence (Q92796 221-321, limits assumed, looked up): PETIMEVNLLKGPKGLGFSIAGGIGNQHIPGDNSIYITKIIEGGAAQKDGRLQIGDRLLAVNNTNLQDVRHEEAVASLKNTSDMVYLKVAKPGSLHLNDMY

T4: GRIP1_3, Q9Y3R0
T4 sequence (Q9Y3R0 247-346, limits assumed, looked up): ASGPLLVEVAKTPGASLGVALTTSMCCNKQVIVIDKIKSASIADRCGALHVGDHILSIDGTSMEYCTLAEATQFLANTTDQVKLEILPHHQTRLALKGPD

T5: HTRA4, P83105
T5 sequence (P83105 378-476, limits assumed, looked up): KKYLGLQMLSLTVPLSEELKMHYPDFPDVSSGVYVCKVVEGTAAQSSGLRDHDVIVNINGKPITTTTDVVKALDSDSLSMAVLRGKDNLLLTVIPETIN

T6: LIN7B, Q9HAP6
T6 sequence (Q9HAP6 88-185, limits assumed, looked up): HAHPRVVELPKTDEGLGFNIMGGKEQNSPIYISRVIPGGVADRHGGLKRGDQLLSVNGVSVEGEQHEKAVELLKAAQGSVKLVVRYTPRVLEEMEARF

T7: MPP6, Q9NZW5
T7 sequence (Q9NZW5 125-219, limits assumed, looked up): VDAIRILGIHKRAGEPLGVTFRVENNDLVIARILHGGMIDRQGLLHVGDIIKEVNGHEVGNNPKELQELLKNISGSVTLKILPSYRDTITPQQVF

T8: MPP7, Q5T2T1
T8 sequence (Q5T2T1 134-230, limits assumed, looked up): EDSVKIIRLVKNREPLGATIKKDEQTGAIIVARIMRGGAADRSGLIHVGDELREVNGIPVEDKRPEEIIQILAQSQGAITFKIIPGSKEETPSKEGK

T9: NHERF3_1, Q5T2W1
T9 sequence (Q5T2W1 4-100, limits assumed, looked up): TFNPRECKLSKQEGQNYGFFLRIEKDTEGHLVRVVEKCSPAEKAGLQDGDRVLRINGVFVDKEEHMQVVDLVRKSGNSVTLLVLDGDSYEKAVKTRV

T10: PDZRN3_1, Q9UPQ7
T10 sequence (Q9UPQ7 244-349, limits assumed, looked up): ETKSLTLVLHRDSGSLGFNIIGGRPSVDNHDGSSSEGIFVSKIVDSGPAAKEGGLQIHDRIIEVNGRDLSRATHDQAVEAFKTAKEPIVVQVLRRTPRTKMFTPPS

T11: SNTG1, Q9NSN8
T11 sequence (Q9NSN8 52-150, limits assumed, looked up): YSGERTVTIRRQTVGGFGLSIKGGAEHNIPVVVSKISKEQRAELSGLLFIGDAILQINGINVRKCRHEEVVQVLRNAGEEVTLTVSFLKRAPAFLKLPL

T12: SYNJ2BP, P57105
T12 sequence (P57105 8-110, limits assumed, looked up): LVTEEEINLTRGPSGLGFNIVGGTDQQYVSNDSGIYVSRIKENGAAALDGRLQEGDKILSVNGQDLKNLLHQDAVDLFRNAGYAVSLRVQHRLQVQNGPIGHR


How the values were obtained:
Experiment in all cases: holdup assay
Set-up in all cases: key: below the threshold = too weak to quantify, mostly under pKd 3.1 to 4
Conditions in all cases: plain residues with an end cap or a label only (N-terminal biotin on a linker: ado-ado)
ARHGAP21, Q5T5U3 = biological target: T1, ARHGAP21, Q5T5U3
DFNB31_2, Q9P202 = biological target: T2, DFNB31_2, Q9P202
DLG3_2, Q92796 = biological target: T3, DLG3_2, Q92796
FRMPD2_3, Q68DX3 = biological target: FRMPD2_3, Q68DX3
FRMPD2_3, Q68DX3, sequence (Q68DX3 1073-1166): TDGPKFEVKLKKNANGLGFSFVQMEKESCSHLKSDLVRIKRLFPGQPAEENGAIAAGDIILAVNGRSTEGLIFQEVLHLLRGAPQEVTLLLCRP

GIPC2, Q8TF65 = biological target: GIPC2, Q8TF65
GIPC2, Q8TF65, sequence (Q8TF65 112-203): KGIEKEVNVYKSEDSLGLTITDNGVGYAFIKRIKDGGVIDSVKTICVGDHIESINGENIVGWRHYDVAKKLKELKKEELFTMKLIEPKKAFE

GRIP1_3, Q9Y3R0 = biological target: T4, GRIP1_3, Q9Y3R0
GRIP2_5, Q9C0E4 = biological target: GRIP2_5, Q9C0E4
GRIP2_5, Q9C0E4, sequence (Q9C0E4 544-642): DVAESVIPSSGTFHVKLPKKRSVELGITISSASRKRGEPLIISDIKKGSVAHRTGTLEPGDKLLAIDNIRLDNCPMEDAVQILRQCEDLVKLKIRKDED

GRIP2_7, Q9C0E4 = biological target: GRIP2_7, Q9C0E4
GRIP2_7, Q9C0E4, sequence (Q9C0E4 934-1023): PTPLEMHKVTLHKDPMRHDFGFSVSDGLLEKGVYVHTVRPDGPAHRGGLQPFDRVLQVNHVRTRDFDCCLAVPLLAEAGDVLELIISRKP

HTRA4, P83105 = biological target: T5, HTRA4, P83105
Inadl_10, Q8NI35 = biological target: Inadl_10, Q8NI35
Inadl_10, Q8NI35, sequence (Q8NI35 1673-1763): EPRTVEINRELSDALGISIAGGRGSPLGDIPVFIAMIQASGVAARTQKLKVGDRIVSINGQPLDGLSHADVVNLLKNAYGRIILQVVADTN

Inadl_2, Q8NI35 = biological target: Inadl_2, Q8NI35
Inadl_2, Q8NI35, sequence (Q8NI35 238-335): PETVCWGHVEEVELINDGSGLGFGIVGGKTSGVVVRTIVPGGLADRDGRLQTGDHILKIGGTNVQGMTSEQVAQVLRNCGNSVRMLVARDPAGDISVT

Inadl_6, Q8NI35 = biological target: Inadl_6, Q8NI35
Inadl_6, Q8NI35, sequence (Q8NI35 1058-1167): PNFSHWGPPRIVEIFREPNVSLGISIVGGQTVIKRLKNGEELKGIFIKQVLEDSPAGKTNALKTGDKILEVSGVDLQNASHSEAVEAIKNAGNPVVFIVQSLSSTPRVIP

LDB3, O75112 = biological target: LDB3, O75112
LDB3, O75112, sequence (O75112 1-94): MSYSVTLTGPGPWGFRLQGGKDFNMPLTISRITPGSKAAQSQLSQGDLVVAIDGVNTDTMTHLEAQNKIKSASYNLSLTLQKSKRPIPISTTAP

LIN7B, Q9HAP6 = biological target: T6, LIN7B, Q9HAP6
MAGI1_2, Q96QZ7 = biological target: MAGI1_2, Q96QZ7
MAGI1_2, Q96QZ7, sequence (Q96QZ7 456-580): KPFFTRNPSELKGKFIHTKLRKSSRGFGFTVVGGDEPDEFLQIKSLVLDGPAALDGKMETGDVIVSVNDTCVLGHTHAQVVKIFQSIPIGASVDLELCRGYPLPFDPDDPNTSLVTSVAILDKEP

MAGI2_5, Q86UL8 = biological target: MAGI2_5, Q86UL8
MAGI2_5, Q86UL8, sequence (Q86UL8 915-1017): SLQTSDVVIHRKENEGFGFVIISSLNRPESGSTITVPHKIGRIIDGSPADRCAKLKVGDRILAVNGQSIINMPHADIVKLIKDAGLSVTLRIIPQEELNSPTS

MAGI3_2, Q5TCQ9 = biological target: MAGI3_2, Q5TCQ9
MAGI3_2, Q5TCQ9, sequence (Q5TCQ9 398-503): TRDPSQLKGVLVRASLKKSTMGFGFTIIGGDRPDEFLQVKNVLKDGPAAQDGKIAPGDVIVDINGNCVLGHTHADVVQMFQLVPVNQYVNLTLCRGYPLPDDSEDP

MPP6, Q9NZW5 = biological target: T7, MPP6, Q9NZW5
MPP7, Q5T2T1 = biological target: T8, MPP7, Q5T2T1
NHERF3_1, Q5T2W1 = biological target: T9, NHERF3_1, Q5T2W1
PDZRN3_1, Q9UPQ7 = biological target: T10, PDZRN3_1, Q9UPQ7
PICK1, Q9NRD5 = biological target: PICK1, Q9NRD5
PICK1, Q9NRD5, sequence (Q9NRD5 17-115): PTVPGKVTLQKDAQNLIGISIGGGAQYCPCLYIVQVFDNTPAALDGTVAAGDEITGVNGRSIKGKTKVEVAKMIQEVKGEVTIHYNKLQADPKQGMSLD

SNTG1, Q9NSN8 = biological target: T11, SNTG1, Q9NSN8
SYNJ2BP, P57105 = biological target: T12, SYNJ2BP, P57105

pKd (ARHGAP21, Q5T5U3)	pKd (DFNB31_2, Q9P202)	pKd (DLG3_2, Q92796)	pKd (FRMPD2_3, Q68DX3)	pKd (GIPC2, Q8TF65)	pKd (GRIP1_3, Q9Y3R0)	pKd (GRIP2_5, Q9C0E4)	pKd (GRIP2_7, Q9C0E4)	pKd (HTRA4, P83105)	pKd (Inadl_10, Q8NI35)	pKd (Inadl_2, Q8NI35)	pKd (Inadl_6, Q8NI35)	pKd (LDB3, O75112)	pKd (LIN7B, Q9HAP6)	pKd (MAGI1_2, Q96QZ7)	pKd (MAGI2_5, Q86UL8)	pKd (MAGI3_2, Q5TCQ9)	pKd (MPP6, Q9NZW5)	pKd (MPP7, Q5T2T1)	pKd (NHERF3_1, Q5T2W1)	Binder	other results
4.07	3.5	3.79	below the threshold	below the threshold	below the threshold	below the threshold	below the threshold	below the threshold	below the threshold	below the threshold	3.57	below the threshold	below the threshold	below the threshold	4.02	3.84	below the threshold	below the threshold	4.51	PELESKESVL [SLC1A4, P43007]	pKd (PDZRN3_1, Q9UPQ7): 4.46; pKd (PICK1, Q9NRD5): below the threshold; pKd (SNTG1, Q9NSN8): 3.68; pKd (SYNJ2BP, P57105): 4.34
4.02	below the threshold	below the threshold	below the threshold	below the threshold	below the threshold	below the threshold	below the threshold	below the threshold	below the threshold	below the threshold	below the threshold	below the threshold	below the threshold	4.25	below the threshold	4.4	below the threshold	below the threshold	4.79	SRPTKGPTLL [PLEKHH2, Q8IVE3]	pKd (PDZRN3_1, Q9UPQ7): 3.69; pKd (PICK1, Q9NRD5): below the threshold; pKd (SNTG1, Q9NSN8): below the threshold; pKd (SYNJ2BP, P57105): below the threshold

Continued, binder first:

Binder	pKd (ARHGAP21, Q5T5U3)	pKd (DFNB31_2, Q9P202)	pKd (DLG3_2, Q92796)	pKd (FRMPD2_3, Q68DX3)	pKd (GIPC2, Q8TF65)	pKd (GRIP1_3, Q9Y3R0)	pKd (GRIP2_5, Q9C0E4)	pKd (GRIP2_7, Q9C0E4)	pKd (HTRA4, P83105)	pKd (Inadl_10, Q8NI35)	pKd (Inadl_2, Q8NI35)	pKd (Inadl_6, Q8NI35)	pKd (LDB3, O75112)	pKd (LIN7B, Q9HAP6)	pKd (MAGI1_2, Q96QZ7)	pKd (MAGI2_5, Q86UL8)	pKd (MAGI3_2, Q5TCQ9)	pKd (MPP6, Q9NZW5)	pKd (MPP7, Q5T2T1)	pKd (NHERF3_1, Q5T2W1)	other results
LTAQEQPVYI [APBA1, Q02410]	3.57	below the threshold	4.06	below the threshold	below the threshold	below the threshold	below the threshold	3.78	4.89	below the threshold	3.72	below the threshold	below the threshold	3.66	below the threshold	below the threshold	below the threshold	below the threshold	below the threshold	below the threshold	pKd (PDZRN3_1, Q9UPQ7): below the threshold; pKd (PICK1, Q9NRD5): below the threshold; pKd (SNTG1, Q9NSN8): below the threshold; pKd (SYNJ2BP, P57105): below the threshold
PLDSQQHTEV [FAT1, Q14517]	3.85	below the threshold	4.77	below the threshold	3.89	below the threshold	below the threshold	below the threshold	4.26	below the threshold	below the threshold	below the threshold	below the threshold	below the threshold	below the threshold	4.54	3.71	below the threshold	below the threshold	below the threshold	pKd (PDZRN3_1, Q9UPQ7): below the threshold; pKd (PICK1, Q9NRD5): below the threshold; pKd (SNTG1, Q9NSN8): 4.04; pKd (SYNJ2BP, P57105): 4.62
RQSILFSTEV [BCR, P11274]	below the threshold	below the threshold	4.79	below the threshold	3.56	below the threshold	below the threshold	3.66	4.82	4.32	below the threshold	3.93	below the threshold	below the threshold	3.91	5.17	4.13	below the threshold	below the threshold	5.78	pKd (PDZRN3_1, Q9UPQ7): 4.03; pKd (PICK1, Q9NRD5): below the threshold; pKd (SNTG1, Q9NSN8): 4.67; pKd (SYNJ2BP, P57105): 5.28
EEDTAEKDEL [HSPA5, P11021]	4.05	below the threshold	below the threshold	below the threshold	3.55	below the threshold	below the threshold	below the threshold	below the threshold	below the threshold	below the threshold	below the threshold	3.68	below the threshold	below the threshold	below the threshold	4.48	below the threshold	below the threshold	below the threshold	pKd (PDZRN3_1, Q9UPQ7): below the threshold; pKd (PICK1, Q9NRD5): below the threshold; pKd (SNTG1, Q9NSN8): below the threshold; pKd (SYNJ2BP, P57105): 3.52
